Data taken from paper doi:10.1101/2021.05.25.445681 (bioRxiv, 2021).

Biological target: the molecule itself
Assay: cryo-EM structure

B1: E. coli MsbA (natural protein)
chain: MHNDKDLSTWQTFRRLWPTIAPFKAGLIVAGVALILNAASDTFMLSLLKPLLDDGFGKTDRSVLVWMPLVVIGLMILRGITSYVSSYCISWVSGKVVMTMRRRLFGHMMGMPVSFFDKQSTGTLLSRITYDSEQVASSSSGALITVVREGASIIGLFIMMFYYSWQLSIILIVLAPIVSIAIRVVSKRFRNISKNMQNTMGQVTTSAEQMLKGHKEVLIFGGQEVETKRFDKVSNRMRLQGMKMVSASSISDPIIQLIASLALAFVLYAASFPSVMDSLTAGTITVVFSSMIALMRPLKSLTNVNAQFQRGMAACQTLFTILDSEQEKDEGKRVIERATGDVEFRNVTFTYPGRDVPALRNINLKIPAGKTVALVGRSGSGKSTIASLITRFYDIDEGEILMDGHDLREYTLASLRNQVALVSQNVHLFNDTVANNIAYARTEQYSREQIEEAARMAYAMDFINKMDNGLDTVIGENGVLLSGGQRQRIAIARALLRDSPILILDEATSALDTESERAIQAALDELQKNRTSLVIAHRLSTIEKADEIVVVEDGVIVERGTHNDLLEHRGVYAQLHKMQFGQ
- binding result: binds
